# Measurements taken from patent publication US6635751B1, “Isolated nucleic acids encoding activated and suppressive forms of ATF6” (HSP Research Institute, Inc., priority 1998, dated 2003).
# B1: CREB-RP(151-389): CREB-RP deletion mutant lacking transcription-activating domain (protein, UniProt Q99941 151-389, looked up, fragment)
# chain: VIPTSDDSSDVQTKIEPVSPCSSVNSEASLLSADSSSQAFIGEEVLEVKTESLSPSGCLLWDVPAPSLGAVQISMGPSLDGSSGKALPTRKPPLQPKPVVLTTVPMPSRAVPPSTTVLLQSLVQPPPVSPVVLIQGAIRVQPEGPAPSLPRPERKSIVPAPMPGNSCPPEVDAKLLKRQQRMIKNRESACQSRRKKKEYLQGLEARLQAVLADNQQLRRENAALRRRLEALLAENSELK
# B2: CREB-RP(1-389): CREB-RP amino acids 1st to 389th, corresponding to p60CREB-RP, activated form (protein)
# chain: AELMLLSEIADPTRFFTDNLLSPEDWDSTLYSGLDEVAEEQTQLFRCPEQDVPFDGSSLDVGMDVSPSEPPWELLPIFPDLQVKSEPSSPCSSSSLSSESSRLSTEPSSEALGVGEVLHVKTESLAPPLCLLGDDPTSSFETVQINVIPTSDDSSDVQTKIEPVSPCSSVNSEASLLSADSSSQAFIGEEVLEVKTESLSPSGCLLWDVPAPSLGAVQISMGPSLDGSSGKALPTRKPPLQPKPVVLTTVPMPSRAVPPSTTVLLQSLVQPPPVSPVVLIQGAIRVQPEGPAPSLPRPERKSIVPAPMPGNSCPPEVDAKLLKRQQRMIKNRESACQSRRKKKEYLQGLEARLQAVLADNQQLRRENAALRRRLEALLAENSELKLGSGNRKVVCIMVFLLFIAFNFGPVSISEPPSAPISPRMNKGEPQPRRHLLGFSEQEPVQGVEPLQGSSQGPKEPQPSPTDQPSFSNLTAFPGGAKELLLRDLDQLFLSSDCRHFNRTESLRLADELSGWVQRHQRGRRKIPQRAQERQKSQPRKKSPPVKAVPIQPPGPPERDSVGQLQLYRHPDRSQPAFLDAIDRREDTFYVVSFRRGHLLLPAISHNKTSRPKMSLVMPAMAPNETLSGRGAPGDYEEMMQIECEVMDTRVIHIKTSTVPPSLRKQPSPTPGNATGGPLPVSAASQAHQASHQPLYLNHP
# B3: CREB-RP(81-389): CREB-RP deletion mutant lacking transcription-activating domain (protein, UniProt Q99941 81-389, looked up, fragment)
# chain: IFPDLQVKSEPSSPCSSSSLSSESSRLSTEPSSEALGVGEVLHVKTESLAPPLCLLGDDPTSSFETVQINVIPTSDDSSDVQTKIEPVSPCSSVNSEASLLSADSSSQAFIGEEVLEVKTESLSPSGCLLWDVPAPSLGAVQISMGPSLDGSSGKALPTRKPPLQPKPVVLTTVPMPSRAVPPSTTVLLQSLVQPPPVSPVVLIQGAIRVQPEGPAPSLPRPERKSIVPAPMPGNSCPPEVDAKLLKRQQRMIKNRESACQSRRKKKEYLQGLEARLQAVLADNQQLRRENAALRRRLEALLAENSELK
# Columns and labels:
# [1] = tested on: human GRP78 promoter; test: Overexpression of CREB-RP mutants with GRP78 promoter luciferase reporter in HeLa cells, ERSE-mediated transcription; type: cell-based; conditions: for ERSE-dependent transcriptional induction by the TM treatment: 2 μg/ml tunicamycin for 16 hours
# Text: (§1) In a 96-well plate, the HeLa cells were transiently transformed with a reporter plasmid pGL-G78(−132) for expressing firefly luciferase gene under the control of a human GRP78 promoter together with pcDNA3.1 vector which has no inserts or with ATF6(1-373) expression plasmid or with CREB-RP(1-389) expression plasmid. Relative activity is indicated by the mean±standard deviation (bars), based on four independent experiments (each triplicate determinations).
# as §1, with “transformed using” for “transformed with”, “with CREB-RP(308-386)” for “with ATF6(1-373) expression plasmid or with CREB-RP(1-389)”, “plasmid. Transfected cells were treated with (closed bars) or without 2 μg/ml tunicamycin (open bars) for 16 hours before luciferase activities were determined.” for “plasmid.”
# In the figure, closed bars and open bars indicate the same as those in FIG. 31.
# The CREB-RP(1-389) expression plasmid and a reporter plasmid resulting from ligation of the luciferase gene to downstream of the GRP78 promoter or mutant GRP78 promoter were introduced into the HeLa cells to evaluate the effect of CREB-RP(1-389) overexpression on ERSE-mediated transcriptional activation.
# In the same manner as in Example 16, the effect of CREB-RP(308-386) overexpression on ERSE-mediated transcriptional activation was evaluated.
# In addition, in the same manner as in Example 16, the effect of overexpression of CREB-RP(81-389) or CREB-RP(151-389) on ERSE-mediated transcriptional activation was evaluated. Here, each of CREB-RP(81-389) and CREB-RP(151-389) lacks transcription-activating domain.
# [2] = tested on: HeLa cells; test: Immunoblotting time course of p50ATF6 and GRP78 in treated HeLa cells; type: cell-based, human; conditions: 7 μM A23187 or 300 μM thapsigargin
# Method: HeLa cells were treated with 2 μg/ml TM, 7 μM A23187 or 300 μM thapsigargin (in the figure, simply referred to as “Tg”) for the indicated period. Alternatively, HeLa cells which were treated separately from the above treated cells were heat-shocked at 43° C. for 1 hour and then recovered at 37° C. for the indicated period. Whole cell extracts were prepared and analyzed by immunoblotting using an anti-B03N antiserum or an antiserum specific to either GRP78 or HSP70.
# HeLa cells cultured in a 60-mm dish so as to have 60% confluency were incubated in the presence of 2 μg/ml tunicamycin (TM) for the indicated period. Cells were washed with PBS, scraped with a rubber policeman, and suspended in 100 μl Laemmli's SDS sample buffer. After boiling the suspension for 5 minutes, aliquots corresponding to 1×10^5 cells were subjected to SDS-PAGE (10% gel) and analyzed by immunoblotting using an anti-ATF6 antibody, or an anti-KDEL antibody recognizing GRP78. The positions of p90ATF6 and p50ATF6 are indicated by open and closed arrows, respectively. The asterisks denote non-specific bands in which a sugar chain is not added to p90ATF6. The positions of molecular weight markers (manufactured by Bio-Rad, prestained SDS-PAGE preparations) are also shown.
# By lysing 1×10^6 HeLa cells in 60 μl of 1×sample buffer (62.5 mM Tris-HCl (pH 6.8), 2% SDS, 350 mM dithiothreitol and 0.01% bromophenol blue), a whole cell extract was prepared. […] Using an ECL Western blotting detection kit (manufactured by Amersham Pharmacia Biotech), each antigen was detected.
# In order to determine whether or not the appearance of p50ATF6 is associated with the intracellular UPR activity, stress-induced p50ATF6 appearance and GRP78 expression were monitored with the passage of time by immunoblotting.
# In order to determine whether or not p90ATF6 is directly converted to p50ATF6 by endoplasmic reticulum stress, quantitative changes in p90ATF6, p50ATF6 and the target protein GRP78 in TM-treated HeLa cells were evaluated with the passage of time by immunoblotting using the purified ATF6 antibody.
Molecule,ERSE-dependent transcriptional induction by the TM treatment [1],appearance of p50ATF6 relative to GRP78 induction [2],also measured
CREB-RP(308-386): CREB-RP amino acids 308th to 386th with N-terminal Met; only basic region and leucine zipper,strongly suppressed,,
C/C=C(/C)C(=O)O[C@H]1C(C)=C2[C@H]([C@@H]1OC(=O)CCCCCCC)[C@@](C)(OC(C)=O)C[C@H](OC(=O)CCC)[C@@]1(O)[C@H]2OC(=O)[C@@]1(C)O [thapsigargin],,p50ATF6 appeared in advance of GRP78 induction,
CNc1ccc2oc(C[C@H]3O[C@@]4(CC[C@H]3C)O[C@H]([C@H](C)C(=O)c3ccc[nH]3)[C@H](C)C[C@H]4C)nc2c1C(=O)O [A23187],,p50ATF6 appeared in advance of GRP78 induction,
B1,strongly suppressed,,
B2,,,"ERSE-mediated transcription from GRP78 promoter on overexpression ([1]; without ER stress, not observed with mutant ERSE): constitutively activated the transcription"
B3,strongly suppressed,,
